B1: example_7 (protein, part only; not given: Fc, Gas6 trap, linkers, not shown: small tags and cut ends)
chain, part: EVQLQESGPGLVKPSQTLSLTCTVSGYSITSDYWNWIRKPPGKGLEYMGYISYTGSTYYNPSLKSRITISRDTSKNQYSLKLSSVTAADTAVYYCARRGEWLSPFAYWGQGTLVTVSSDIQMTQSPSSLSASVGDRVTITCKSSQSLLYSSNQKNSLAWYQQKPGKAPKLLIYWASTRESGVPSRFSGSGSGTDFTLTISSLQPEDFATYYCQQYYTYPFTFGQGTKLEIK
B2: example_8 (protein, part only; not given: Fc, Gas6 trap, linkers, not shown: small tags and cut ends)
chain, part: B1 chain, part with N35D, K64R, E100G, A106V, S144R, Y149F
B3: example_3 (protein, part only; not given: constant regions, Gas6 trap, linker, not shown: a dimerising Fc or GST; small tags and cut ends)
heavy, part: EVQLQESGPGLVKPSQTLSLTCTVSGYSITSDYWNWIRKPPGKGLEYMGYISYTGSTYYNPSLKSRITISRDTSKNQYSLKLSSVTAADTAVYYCARRGEWLSPFAYWGQGTLVTVSS
light: DIQMTQSPSSLSASVGDRVTITCKSSQSLLYSSNQKNSLAWYQQKPGKAPKLLIYWASTRESGVPSRFSGSGSGTDFTLTISSLQPEDFATYYCQQYYTYPFTFGQGTKLEIK
B4: example_5 (protein, part only; not given: constant regions, Gas6 trap, linker, not shown: a dimerising Fc or GST; small tags and cut ends)
heavy, part: B3 heavy, part with N35D, K64R, E100G, A106V
light: B3 light with S26R, Y31F

As a reminder, the EC50 is the midpoint of the concentration-response curve.

Substitutions are numbered along the chain they refer to.

For the first test, the target named is Recombinant human PD-L1 protein (human) (UniProt Q9NZQ7). Kind of test: ELISA, plate-coated recombinant human PD-L1, anti-human IgG-HRP.
As for B1, the EC50 is below 0.1 nM. On the same count and under the same terms, the same measure for B2: below 0.1 nM; for B3: below 0.1 nM; for B4: below 0.1 nM.

In another test the target is PD-L1 on PD-L1 aAPC/CHO-K1 cells (human) (UniProt Q9NZQ7). Put plainly: cell-based or functional assay.
Molecule B1 returned a PD-L1/PD-1 blockade assay, EC50 (luciferase in PD-1 effector cells) below 3 nM. Regarding B2, the PD-L1/PD-1 blockade assay, EC50 (luciferase in PD-1 effector cells) was below 3 nM. On the same count and under the same terms, the same measure for B3: below 3 nM. B4 registered a PD-L1/PD-1 blockade assay, EC50 (luciferase in PD-1 effector cells) below 3 nM.

Another test addresses human Gas6 recombinant protein (human) (UniProt Q14393). Kind of test: ELISA, plate-coated test molecule, serially diluted hGas6. (In general: An ELISA detects its analyte on a solid surface through an enzyme-linked reagent.)
Chain of UniProt Q14393 (Q14393 49-678 limits assumed): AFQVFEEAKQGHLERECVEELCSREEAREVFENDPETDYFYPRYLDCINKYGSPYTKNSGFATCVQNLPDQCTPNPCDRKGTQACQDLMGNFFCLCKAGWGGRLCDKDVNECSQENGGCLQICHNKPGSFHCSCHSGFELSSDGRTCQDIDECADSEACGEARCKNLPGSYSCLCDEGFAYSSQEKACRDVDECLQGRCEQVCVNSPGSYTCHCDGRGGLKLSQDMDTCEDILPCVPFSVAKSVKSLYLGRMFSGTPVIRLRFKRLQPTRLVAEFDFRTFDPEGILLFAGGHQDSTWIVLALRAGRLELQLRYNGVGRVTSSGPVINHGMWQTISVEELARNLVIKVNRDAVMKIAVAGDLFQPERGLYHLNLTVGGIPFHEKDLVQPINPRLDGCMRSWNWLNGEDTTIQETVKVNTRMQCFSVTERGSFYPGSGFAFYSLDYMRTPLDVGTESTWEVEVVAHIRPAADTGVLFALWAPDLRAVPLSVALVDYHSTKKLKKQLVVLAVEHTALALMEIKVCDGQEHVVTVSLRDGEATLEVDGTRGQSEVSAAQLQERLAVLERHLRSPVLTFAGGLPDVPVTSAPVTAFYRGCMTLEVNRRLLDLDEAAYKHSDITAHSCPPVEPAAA
Take Axl-Fc (Fc fusion): the EC50 was below 3 nM.

(Values after patent US20240218337A1.)
